# Laboratory results taken from publication PMC3136212, “Identification of the DNA-Binding Domains of Human Replication Protein A That Recognize G-Quadruplex DNA”.
# Experiments:
# [1] = biological target: T1, RPA-DE (human, UniProt P15927;P35244 43-171;1-121); assay: FP; 10 mM NaCl; FP: 0.060 uM FAM-oligo, 10-1500 mM NaCl, room temperature; CD: Buffer A 25 mM Tris pH 7.5, 2 mM MgCl2, 6% glycerol, 1 mM DTT, 100 (or 10) mM NaCl, room temperature; conditions: protein: recombinant; tags: N-terminal His, thrombin-cleaved; copies: 1;1; label: 5' 6-FAM
# [2] = biological target: T2, RPA-C (human, UniProt P27694 432-595, V435T;W442Q;V465T;V469T;F523S;F567S;I571T); assay: as above; conditions: protein: recombinant; tags: N-terminal His, thrombin-cleaved; label: 5' 6-FAM
# [3] = biological target: T3, RPA-AB (human, UniProt P27694 181-441); assay: FP; 100 mM NaCl; FP: 0.060 uM FAM-oligo, 10-1500 mM NaCl, room temperature; CD: Buffer A 25 mM Tris pH 7.5, 2 mM MgCl2, 6% glycerol, 1 mM DTT, 100 (or 10) mM NaCl, room temperature; set-up: unit not given here; conditions: protein: recombinant, tags: N-terminal His6, thrombin-cleaved, label: 5' 6-FAM
# [4] = biological target: T4, RPA-CDE-core (human, UniProt P27694;P15927;P35244 436-616;43-171;1-121); assay: as above; set-up: unit not given here; conditions: protein: recombinant, tags: N-terminal His, thrombin-cleaved, copies: 1;1;1, label: 5' 6-FAM
# [5] = biological target: T5, RPA (full-length heterotrimer RPA1/RPA2/RPA3) (human, UniProt P27694;P15927;P35244 1-616;1-270;1-121); assay: FP; 500 mM NaCl; FP: 0.060 uM FAM-oligo, 10-1500 mM NaCl, room temperature; CD: Buffer A 25 mM Tris pH 7.5, 2 mM MgCl2, 6% glycerol, 1 mM DTT, 100 (or 10) mM NaCl, room temperature; conditions: protein: recombinant; copies: 1;1;1; label: 5' 6-FAM
# [6] = biological target: T4, RPA-CDE-core; assay: FP; 10 mM NaCl; FP: 0.060 uM FAM-oligo, 10-1500 mM NaCl, room temperature; CD: Buffer A 25 mM Tris pH 7.5, 2 mM MgCl2, 6% glycerol, 1 mM DTT, 100 (or 10) mM NaCl, room temperature; set-up: unit not given here; conditions: protein: recombinant, tags: N-terminal His, thrombin-cleaved, copies: 1;1;1, label: 5' 6-FAM
# [7] = biological target: T5, RPA (full-length heterotrimer …); assay: FP; 500 mM NaCl; stoichiometric; FP: 0.060 uM FAM-oligo, 10-1500 mM NaCl, room temperature; CD: Buffer A 25 mM Tris pH 7.5, 2 mM MgCl2, 6% glycerol, 1 mM DTT, 100 (or 10) mM NaCl, room temperature; set-up: unit not given here; conditions: protein: recombinant; copies: 1;1;1; label: 5' 6-FAM
# [8] = biological target: T3, RPA-AB; assay: FP; 1250 mM NaCl; FP: 0.060 uM FAM-oligo, 10-1500 mM NaCl, room temperature; CD: Buffer A 25 mM Tris pH 7.5, 2 mM MgCl2, 6% glycerol, 1 mM DTT, 100 (or 10) mM NaCl, room temperature; set-up: unit not given here; conditions: protein: recombinant; tags: N-terminal His6, thrombin-cleaved; label: 5' 6-FAM
# [9] = biological target: T4, RPA-CDE-core; assay: as above; set-up: unit not given here; conditions: protein: recombinant; tags: N-terminal His, thrombin-cleaved; copies: 1;1;1; label: 5' 6-FAM
# [10] = biological target: T3, RPA-AB; assay: FP; 500 mM NaCl; FP: 0.060 uM FAM-oligo, 10-1500 mM NaCl, room temperature; CD: Buffer A 25 mM Tris pH 7.5, 2 mM MgCl2, 6% glycerol, 1 mM DTT, 100 (or 10) mM NaCl, room temperature; conditions: protein: recombinant, tags: N-terminal His6, thrombin-cleaved, label: 5' 6-FAM
# [11] = biological target: T4, RPA-CDE-core; assay: as above; conditions: protein: recombinant, tags: N-terminal His, thrombin-cleaved, copies: 1;1;1, label: 5' 6-FAM
# [12] = biological target: T3, RPA-AB; assay: FP; 1500 mM NaCl; FP: 0.060 uM FAM-oligo, 10-1500 mM NaCl, room temperature; CD: Buffer A 25 mM Tris pH 7.5, 2 mM MgCl2, 6% glycerol, 1 mM DTT, 100 (or 10) mM NaCl, room temperature; set-up: unit not given here; conditions: protein: recombinant; tags: N-terminal His6, thrombin-cleaved; label: 5' 6-FAM
# [13] = biological target: T2, RPA-C; assay: FP; 10 mM NaCl; FP: 0.060 uM FAM-oligo, 10-1500 mM NaCl, room temperature; CD: Buffer A 25 mM Tris pH 7.5, 2 mM MgCl2, 6% glycerol, 1 mM DTT, 100 (or 10) mM NaCl, room temperature; set-up: unit not given here; conditions: protein: recombinant, tags: N-terminal His, thrombin-cleaved, label: 5' 6-FAM
# [14] = biological target: T5, RPA (full-length heterotrimer …); assay: FP; 1250 mM NaCl; FP: 0.060 uM FAM-oligo, 10-1500 mM NaCl, room temperature; CD: Buffer A 25 mM Tris pH 7.5, 2 mM MgCl2, 6% glycerol, 1 mM DTT, 100 (or 10) mM NaCl, room temperature; set-up: unit not given here; conditions: protein: recombinant; copies: 1;1;1; label: 5' 6-FAM; intramolecular G4, antiparallel at 100 mM NaCl, mixed/parallel at 10 mM NaCl
# [15] = biological target: T5, RPA (full-length heterotrimer …); assay: FP; 500 mM NaCl; stoichiometric (equilibrium only at 1250 mM); FP: 0.060 uM FAM-oligo, 10-1500 mM NaCl, room temperature; CD: Buffer A 25 mM Tris pH 7.5, 2 mM MgCl2, 6% glycerol, 1 mM DTT, 100 (or 10) mM NaCl, room temperature; conditions: protein: recombinant; copies: 1;1;1; label: 5' 6-FAM; intramolecular G4, antiparallel at 100 mM NaCl, mixed/parallel at 10 mM NaCl
# [16] = biological target: T5, RPA (full-length heterotrimer …); assay: FP; 1500 mM NaCl; FP: 0.060 uM FAM-oligo, 10-1500 mM NaCl, room temperature; CD: Buffer A 25 mM Tris pH 7.5, 2 mM MgCl2, 6% glycerol, 1 mM DTT, 100 (or 10) mM NaCl, room temperature; set-up: unit not given here; conditions: protein: recombinant; copies: 1;1;1; label: 5' 6-FAM; intramolecular G4, antiparallel at 100 mM NaCl, mixed/parallel at 10 mM NaCl
# [17] = biological target: T1, RPA-DE; assay: FP; 10 mM NaCl; FP: 0.060 uM FAM-oligo, 10-1500 mM NaCl, room temperature; CD: Buffer A 25 mM Tris pH 7.5, 2 mM MgCl2, 6% glycerol, 1 mM DTT, 100 (or 10) mM NaCl, room temperature; set-up: unit not given here; conditions: protein: recombinant; tags: N-terminal His, thrombin-cleaved; copies: 1;1; label: 5' 6-FAM; intramolecular G4, antiparallel at 100 mM NaCl, mixed/parallel at 10 mM NaCl
# [18] = biological target: T4, RPA-CDE-core; assay: competition; FP, 0-10 uM unlabeled vs 60 nM FAM-Comp; FP: 0.060 uM FAM-oligo, 10-1500 mM NaCl, room temperature; CD: Buffer A 25 mM Tris pH 7.5, 2 mM MgCl2, 6% glycerol, 1 mM DTT, 100 (or 10) mM NaCl, room temperature; conditions: protein: recombinant; tags: N-terminal His, thrombin-cleaved; copies: 1;1;1
# [19] = biological target: T5, RPA (full-length heterotrimer …); assay: as above; conditions: protein: recombinant; copies: 1;1;1
# [20] = biological target: T2, RPA-C; assay: CD titration; 10 mM NaCl; 254 nm peak decreases, 292 nm unchanged; FP: 0.060 uM FAM-oligo, 10-1500 mM NaCl, room temperature; CD: Buffer A 25 mM Tris pH 7.5, 2 mM MgCl2, 6% glycerol, 1 mM DTT, 100 (or 10) mM NaCl, room temperature; conditions: protein: recombinant; tags: N-terminal His, thrombin-cleaved; intramolecular G4
# [21] = biological target: T4, RPA-CDE-core; assay: CD titration; 100 mM NaCl; unfolds G4, complete at protein:DNA 2; FP: 0.060 uM FAM-oligo, 10-1500 mM NaCl, room temperature; CD: Buffer A 25 mM Tris pH 7.5, 2 mM MgCl2, 6% glycerol, 1 mM DTT, 100 (or 10) mM NaCl, room temperature; conditions: protein: recombinant; tags: N-terminal His, thrombin-cleaved; copies: 1;1;1; intramolecular G4
# [22] = biological target: T1, RPA-DE; assay: CD titration; 10 mM NaCl; stabilizes antiparallel G4; FP: 0.060 uM FAM-oligo, 10-1500 mM NaCl, room temperature; CD: Buffer A 25 mM Tris pH 7.5, 2 mM MgCl2, 6% glycerol, 1 mM DTT, 100 (or 10) mM NaCl, room temperature; conditions: protein: recombinant; tags: N-terminal His, thrombin-cleaved; copies: 1;1; intramolecular G4
# [23] = intramolecular G4, antiparallel at 100 mM NaCl, mixed/parallel at 10 mM NaCl
# T3 sequence (P27694 181-441): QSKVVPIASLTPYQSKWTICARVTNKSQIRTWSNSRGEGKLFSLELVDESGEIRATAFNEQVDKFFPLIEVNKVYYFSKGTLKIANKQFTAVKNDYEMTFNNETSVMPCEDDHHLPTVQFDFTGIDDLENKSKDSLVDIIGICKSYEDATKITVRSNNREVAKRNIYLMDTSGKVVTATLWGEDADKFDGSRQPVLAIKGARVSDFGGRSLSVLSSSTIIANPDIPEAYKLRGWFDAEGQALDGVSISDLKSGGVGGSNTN
# T4 sequence (P27694 436-616, chain 1 of 3): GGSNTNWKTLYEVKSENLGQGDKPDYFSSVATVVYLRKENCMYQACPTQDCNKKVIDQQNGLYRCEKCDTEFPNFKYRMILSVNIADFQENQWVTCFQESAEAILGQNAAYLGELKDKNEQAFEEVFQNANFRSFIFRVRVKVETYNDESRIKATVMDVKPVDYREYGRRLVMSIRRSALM
# T4 sequence (P15927 43-171, chain 2 of 3): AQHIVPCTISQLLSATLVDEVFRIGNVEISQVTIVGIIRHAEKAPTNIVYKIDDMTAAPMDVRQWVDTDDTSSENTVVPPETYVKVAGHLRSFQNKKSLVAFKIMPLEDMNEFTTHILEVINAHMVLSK
# T4 sequence (P35244 whole entry, chain 3 of 3): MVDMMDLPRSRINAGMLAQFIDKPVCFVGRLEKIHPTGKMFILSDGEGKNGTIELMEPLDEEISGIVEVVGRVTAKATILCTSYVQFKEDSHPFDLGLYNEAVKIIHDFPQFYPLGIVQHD
# T2 sequence (P27694 432-595 V435T/W442Q/V465T/V469T/F523S/F567S/I571T): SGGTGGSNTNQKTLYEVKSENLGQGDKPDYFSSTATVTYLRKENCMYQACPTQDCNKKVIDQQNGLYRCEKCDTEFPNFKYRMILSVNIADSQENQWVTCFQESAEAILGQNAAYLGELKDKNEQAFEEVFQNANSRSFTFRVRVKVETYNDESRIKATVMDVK
# T1 sequence (P15927 43-171, chain 1 of 2): as the sequence (P15927 43-171, chain 2 of 3) above
# T1 sequence (P35244 whole entry, chain 2 of 2): as the sequence (P35244 whole entry, chain 3 of 3) above
# T5 sequence (P27694 whole entry, chain 1 of 3): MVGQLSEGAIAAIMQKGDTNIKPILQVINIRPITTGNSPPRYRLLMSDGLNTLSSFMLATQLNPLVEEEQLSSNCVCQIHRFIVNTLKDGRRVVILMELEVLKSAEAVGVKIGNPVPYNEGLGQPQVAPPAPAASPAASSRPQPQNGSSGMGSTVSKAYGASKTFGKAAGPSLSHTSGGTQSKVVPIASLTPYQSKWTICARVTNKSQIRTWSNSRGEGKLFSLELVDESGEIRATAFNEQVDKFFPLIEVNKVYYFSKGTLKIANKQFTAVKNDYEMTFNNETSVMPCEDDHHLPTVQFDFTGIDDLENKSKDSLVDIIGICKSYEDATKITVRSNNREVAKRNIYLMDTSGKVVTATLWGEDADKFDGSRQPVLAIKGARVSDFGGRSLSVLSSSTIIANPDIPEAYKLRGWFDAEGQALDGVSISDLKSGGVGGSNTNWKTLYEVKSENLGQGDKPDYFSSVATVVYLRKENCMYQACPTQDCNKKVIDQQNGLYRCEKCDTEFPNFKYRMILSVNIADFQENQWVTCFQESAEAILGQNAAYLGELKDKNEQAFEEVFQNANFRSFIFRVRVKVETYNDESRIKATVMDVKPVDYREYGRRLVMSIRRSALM
# T5 sequence (P15927 whole entry, chain 2 of 3): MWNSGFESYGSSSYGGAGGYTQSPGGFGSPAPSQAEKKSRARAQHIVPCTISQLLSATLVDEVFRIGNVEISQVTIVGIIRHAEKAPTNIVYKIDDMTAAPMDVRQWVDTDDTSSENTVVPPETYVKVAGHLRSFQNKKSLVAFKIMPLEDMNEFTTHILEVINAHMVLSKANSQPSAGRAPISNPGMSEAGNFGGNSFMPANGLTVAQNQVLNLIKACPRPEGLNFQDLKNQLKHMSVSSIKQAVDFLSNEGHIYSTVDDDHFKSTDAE
# T5 sequence (P35244 whole entry, chain 3 of 3): as the sequence (P35244 whole entry, chain 3 of 3) above
binder,measurement,setting,value
"AAAAAAAAAAAAAAAAAAAAAAA (ssDNA, 18-carbon spacer (sp18) at 5' end) [polyA]",binding result,[1],no binding
same,binding result,[2],no binding
same,Kd,[3],1.83
same,Kd,[4],5.88
same,Kd,[5],0.17
same,Kd,[6],0.53
"ATCCCCTTCCCAACCTCACCCAA (ssDNA, 18-carbon spacer (sp18) at 5' end) [Anti (Comp)]",binding result,[1],no binding
same,Kd,[7],~0.06
same,Kd,[3],0.66
same,Kd,[4],0.42
same,Kd,[8],2.65
same,Kd,[9],2.81
same,Kd,[10],1.79
same,Kd,[11],0.75
same,Kd,[12],2.45
same,Kd,[6],0.22
same,Kd,[13],3.32
"TAGGGGAAGGGTTGGAGTGGGTT (structured_DNA, 18-carbon spacer (sp18) at 5' end) [Gq23 (FP)]",Kd,[3]; [23],0.44
same,Kd,[4]; [23],0.55
same,Kd,[14],0.37
same,Kd,[10]; [23],3.28
same,Kd,[11]; [23],11.9 µM
same,Kd,[15],~0.04 0.02
same,Kd,[16],0.85
same,Kd,[6]; [23],0.16
same,Kd,[17],6.68
same,Kd,[13]; [23],3.62
ATCCCCTTCCCAACCTCACCCAA (ssDNA) [Comp competitor (unlabeled)],binding result,[18],binds
same,binding result,[19],binds
"TAGGGGAAGGGTTGGAGTGGGTT (structured_DNA) [Gq23 (CD, unlabeled)]",binding result,[20],binds
same,binding result,[21],binds
same,binding result,[22],binds
